Stoichiometry N data for 3 substances are collected here from doi:10.1101/2020.11.20.391094.

Test [1] deals with His-SctV, full length, synthesized in C41; also reconstituted in peptidiscs (His-SctV9-PR) (enteropathogenic E. coli (EPEC)). The test is described as follows: SEC-MALS. (In general: In gel filtration, larger molecules generally elute earlier.)
For test [2] the target is unchanged. Kind of test: native gel or EMSA. Background: Mobility shift assays separate free from complexed probe on a gel.
In test [3] the target is SctV, full length, untagged, plasmid-borne in E. coli C41 (enteropathogenic E. coli (EPEC)). Kind of test: native gel or EMSA.
Test [4] has as its target His-SctV-C, isolated C-terminal cytoplasmic domain of EPEC SctV (enteropathogenic E. coli (EPEC)). Kind of test: SEC-MALS.
The target is the same in test [5]. Kind of test: native MS.
Test [6] shares this target. The test is described as follows: native gel or EMSA.

What is called stoichiometry N is a count of units in the complex or per binding partner. Turning to “His-SctV, full length, synthesized in C41; also reconstituted in peptidiscs (His-SctV9-PR) (natural protein)”, the stoichiometry N in test [1] and in test [2] was 9 throughout.
In the case of “SctV, full length, untagged, plasmid-borne in E. coli C41 (natural protein)”, in test [3], the stoichiometry N stood at 9.
Consider “His-SctV-C, isolated C-terminal cytoplasmic domain of EPEC SctV (domain or fragment)”, for which the stoichiometry N in test [4], in test [5] and in test [6] was 9 in each case.
